Measurements reported in the supplement of paper PMC9170038.

Tested on: MS2 coat protein
Test: apparent KD of MS2 coat protein; higher = weaker reporter binding
Conditions: Eterna round: R107
Summary of the method: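 Normalised binding curves from single clusters were fitted, and the median fit for each design is given as apparent KD. The clusters held designed RNA switches transcribed on-chip from Illumina sequencing clusters. These were titrated with SNAP-549-labelled MS2 coat protein (twofold steps from 0.7 or 1.5 nM to 3 µM, 0.8–1.5 h to 10–20 min per step) in 100 mM Tris-HCl pH 7.5, 80 mM KCl, 4 mM MgCl2, without or with constant ligand.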

[1] = input ligand: theophylline 20 uM
[2] = input ligand: theophylline 2 mM
[3] = input ligand: tryptophan 2.4 mM

| Sequence | apparent KD of MS2 coat protein (input ligand: arginine 13.2 mM) [nM] | apparent KD of MS2 coat protein [1] [nM] | apparent KD of MS2 coat protein [2] [nM] | apparent KD of MS2 coat protein [3] [nM] | apparent KD of MS2 coat protein (input ligand: none) [nM] |
| --- | --- | --- | --- | --- | --- |
| GUCCUCAUGACGGCCGCCACUACACAUGAGGAUCACCCAUGUAAUGAUCCCUUAAAUGAUAAUAGUAGGACCGGGUCACUGUAAG [Same State Typptophan B GF12] | 119 | 569 | 743 |  |  |
| UGACAUUGCUGCGAUACCAGACAUGAGGAUCACCCAUGUACCAAGGUACGAAAAUAACAUGUCCCUUGGCAGCGCAGCAAUGUCU [MAT - Exclusion Theophlline B - Mod of Eli - D4] | 12.6 | 25.7 |  | 12.1 |  |
| AACUGGACCAGUGAUACCAGAGACAUGAGGAUCACCCAUGUACAUGAGGAUCACCCAUGUCUCCCUUGGCAGCACAGCAGGGAGC [Exclusion Theophylline B Gf12] | 66 | 109 | 720 | 119 | 117 |
| UUGUAUAUGCGAAGGAGCGGGAAAUAUAUAUAUAUAAUCCUAACAUGAGGAUCACCCAUGUCCCAGGUAGGUCGCGCAUAUAUGG [12.F] | 80.5 | 80.7 | 87.9 | 78.3 | 69.5 |
| GAGCUGAUGUAGAGCGAAUAUACGAGAGAUACCAGUACAGAAAUGUACCCUUGGCAGCUCAACUUUACAUGAGGAUCACCCAUGU [Ex Theophylline A 22] | 14.4 | 15.2 |  | 14.3 |  |
| AGUCUUAUAGGAAGGAGCGCAAUCAUAACAUGAGGAUCACCCAUGUCGAGGUGAGGGUCAUUGCAGGUAGGUCGCCUAACUAAGA [Same State - Arginine B (Freestyle 8)] | 126 | 121 | 344 | 96.5 | 281 |
| CUCAUCCACGCGGCCGCCACUAUAUUGUGGUGCGUAUGUGUCGUAAUACAUGAGGAUCACCCAUGUAGGACCGGGCGUGGAUGAG [#10 Exclusion Tryptophan B] | 10.9 | 14.3 | 11.6 |  |  |
| AGUCGAAACUGAAGGAGCGAGAUGACAACAUUGGGUCUAACAUGAGGAUCACCCAUGUAAUCUCAGGUAGGUCGCAGUAACAAAA [Exclusion Arginine B GF 16] | 172 | 165 | 104 | 93.1 | 78.7 |
| AUCGUACCUGAUGAUACCAGCAUGUGCUCGUAACAUGAGGAUCACCCAUGUGAUCAGUAAUGCCCUUGGCAGCAUGAUCGGUACA [Same State - Theophylline B (Freestyle 17)] | 58.8 | 46.9 |  | 50.8 |  |
| AAAAGUGGGUCAAUUAUUUAAACUUCAGAAGGAGCGUGAUGUUUCACAGGUAGGUCGCUGAUAACAUGAGGAUCACCCAUGUAUU [JR_ExcArginiA_Sub007] | 30.8 | 59.8 | 54.4 | 47 | 47.4 |
| UGUAUGGACUGAAGGAGCGGAUGAUAACCUGAGGAUCACCCGGGUAAUAAGGCGAAAGCCAUCCAGGUAGGUCGCAGUCCAUACU | 53.2 | 111 | 126 | 82.9 | 101 |
| AUUAAUAGUUGUGAUACCAGACGAACAUGAGGAUCACCCAUGUAACUUUUAGGUGUUGUAGUCCCUUGGCAGCACUAUUUAGUUA [JR_SSTheophyB_Sub014] | 29.3 | 48.4 |  | 33.6 |  |
| CUACAUGUAGUUAAACCGGUCAACAAUAAUCGAGGACCGGUACGGCCGCCACUCGAUGUGUUAUACACAUGAGGAUCACCCAUGU [Tryptophan A 15] | 23.3 | 27.2 | 27.8 |  |  |
| ACAUUUAACUGAAGGAGCGUGAUAUUUACAUGAGGAUCACCCAUGUCUAUCAUGAGAUAUUCACAGGUAGGUCGCAGACUAAUGA [JR_ExcArginiB_Sub005] | 38.9 | 40.9 | 46.9 | 29.4 | 26.7 |
| ACACCGAAAGGUGCAUUUACCUUAUCAGAUACCAGACUUUACGUUGUCCCUUGGCAGCUGUAUCACAUGAGGAUCACCCAUGUUG [JR_SSTheophyA_Sub011] | 19.3 | 18.8 |  | 16.6 |  |
| CGCGGGCCACAUGAGGAUCACCCAUGUGAAGGAGCGGCGAAUAAGCCAGGUAGGUCGCGCAUGAAUAAAUCAUGUAGGUGGCGAA [XArg-A 10 V1&2] | 16.4 | 22.8 | 21.6 | 20.2 |  |
